The target of the test is HRgpA-6H (Porphyromonas gingivalis) (UniProt P28784). The experiment in a line: ELISA, Fab FASEBA supernatant on coated HRgpA-6H (0.0625 ug/ml).

Where “and” joins values, the source holds several entries; their conditions need not be identical. Equal entries are not always repeated.

Chain of UniProt P28784 (P28784 228-991 limits assumed): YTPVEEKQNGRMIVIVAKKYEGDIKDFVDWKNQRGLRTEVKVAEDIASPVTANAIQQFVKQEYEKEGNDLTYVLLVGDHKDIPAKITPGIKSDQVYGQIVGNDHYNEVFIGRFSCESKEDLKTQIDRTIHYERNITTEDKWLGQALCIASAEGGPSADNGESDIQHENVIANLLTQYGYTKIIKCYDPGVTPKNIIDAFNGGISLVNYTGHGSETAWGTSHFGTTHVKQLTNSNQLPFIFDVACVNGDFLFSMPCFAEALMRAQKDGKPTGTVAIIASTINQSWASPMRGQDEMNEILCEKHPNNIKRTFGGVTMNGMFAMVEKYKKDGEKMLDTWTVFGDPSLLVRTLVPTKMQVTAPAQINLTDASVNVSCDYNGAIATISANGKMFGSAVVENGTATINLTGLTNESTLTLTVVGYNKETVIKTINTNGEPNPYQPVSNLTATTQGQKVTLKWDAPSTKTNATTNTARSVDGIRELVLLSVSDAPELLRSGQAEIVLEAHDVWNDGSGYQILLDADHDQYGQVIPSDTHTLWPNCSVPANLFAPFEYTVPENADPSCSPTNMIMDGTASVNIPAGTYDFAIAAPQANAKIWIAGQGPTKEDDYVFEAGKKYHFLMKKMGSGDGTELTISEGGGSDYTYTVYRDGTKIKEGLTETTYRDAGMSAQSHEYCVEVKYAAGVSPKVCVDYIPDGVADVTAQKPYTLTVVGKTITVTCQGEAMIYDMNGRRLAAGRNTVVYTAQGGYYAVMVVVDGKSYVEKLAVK

B1: KB001 parental mouse Fab VH variant K64L (Fab, V domains shown)
VH: EVQLKQSGPGLVAPSQSLSITCTVSGFSLSIYSVHWVRQPPGKGLEWLGMIWGGGSSDYNSALLSRLSISKDNSKSQVFLKMNSLQTDDTAMYYCARNGNFYAMDYWGQGTSVTVSS
VL: QIVLTQSPAIMSASLGERVTMTCTASSSVSSSFLHWYQQKPGSSPQLWIYSTSNLASGVPARFSGSGSGTSYSLTISSMEAEDAATYYCHQYHHSPYIYTFGGGTKLEIK
Consider B1, for which the OD450nm is 0.664 and the Ratio OD(Variant)/OD(WT) amounted to 0.803.

B2: KB001 parental mouse Fab VH variant S65R (Fab, V domains shown)
VH: EVQLKQSGPGLVAPSQSLSITCTVSGFSLSIYSVHWVRQPPGKGLEWLGMIWGGGSSDYNSALKRRLSISKDNSKSQVFLKMNSLQTDDTAMYYCARNGNFYAMDYWGQGTSVTVSS
VL: QIVLTQSPAIMSASLGERVTMTCTASSSVSSSFLHWYQQKPGSSPQLWIYSTSNLASGVPARFSGSGSGTSYSLTISSMEAEDAATYYCHQYHHSPYIYTFGGGTKLEIK
With B2, the OD450nm is 0.794 and the Ratio OD(Variant)/OD(WT) came out at 0.96.

B3: KB001 parental mouse Fab VH variant K64E (Fab, V domains shown)
VH: EVQLKQSGPGLVAPSQSLSITCTVSGFSLSIYSVHWVRQPPGKGLEWLGMIWGGGSSDYNSALESRLSISKDNSKSQVFLKMNSLQTDDTAMYYCARNGNFYAMDYWGQGTSVTVSS
VL: QIVLTQSPAIMSASLGERVTMTCTASSSVSSSFLHWYQQKPGSSPQLWIYSTSNLASGVPARFSGSGSGTSYSLTISSMEAEDAATYYCHQYHHSPYIYTFGGGTKLEIK
On to B3, for which the OD450nm is 0.789 and the Ratio OD(Variant)/OD(WT) was 0.954.

B4: KB001 parental mouse Fab VH variant S65P (Fab, V domains shown)
VH: EVQLKQSGPGLVAPSQSLSITCTVSGFSLSIYSVHWVRQPPGKGLEWLGMIWGGGSSDYNSALKPRLSISKDNSKSQVFLKMNSLQTDDTAMYYCARNGNFYAMDYWGQGTSVTVSS
VL: QIVLTQSPAIMSASLGERVTMTCTASSSVSSSFLHWYQQKPGSSPQLWIYSTSNLASGVPARFSGSGSGTSYSLTISSMEAEDAATYYCHQYHHSPYIYTFGGGTKLEIK
B4: the OD450nm turned out to be 0.814 and the Ratio OD(Variant)/OD(WT) stood at 0.984.

B5: KB001 parental mouse Fab VH variant S65Y (Fab, V domains shown)
VH: EVQLKQSGPGLVAPSQSLSITCTVSGFSLSIYSVHWVRQPPGKGLEWLGMIWGGGSSDYNSALKYRLSISKDNSKSQVFLKMNSLQTDDTAMYYCARNGNFYAMDYWGQGTSVTVSS
VL: QIVLTQSPAIMSASLGERVTMTCTASSSVSSSFLHWYQQKPGSSPQLWIYSTSNLASGVPARFSGSGSGTSYSLTISSMEAEDAATYYCHQYHHSPYIYTFGGGTKLEIK
As for B5, the OD450nm was 0.724 and the Ratio OD(Variant)/OD(WT) came out at 0.875.

B6: KB001 parental mouse Fab VH variant S65H (Fab, V domains shown)
VH: EVQLKQSGPGLVAPSQSLSITCTVSGFSLSIYSVHWVRQPPGKGLEWLGMIWGGGSSDYNSALKHRLSISKDNSKSQVFLKMNSLQTDDTAMYYCARNGNFYAMDYWGQGTSVTVSS
VL: QIVLTQSPAIMSASLGERVTMTCTASSSVSSSFLHWYQQKPGSSPQLWIYSTSNLASGVPARFSGSGSGTSYSLTISSMEAEDAATYYCHQYHHSPYIYTFGGGTKLEIK
In the case of B6, the OD450nm is 0.823 and 0.767; the Ratio OD(Variant)/OD(WT) is 0.995 and 0.927.

B7: KB001 parental mouse Fab VH variant K64M (Fab, V domains shown)
VH: EVQLKQSGPGLVAPSQSLSITCTVSGFSLSIYSVHWVRQPPGKGLEWLGMIWGGGSSDYNSALMSRLSISKDNSKSQVFLKMNSLQTDDTAMYYCARNGNFYAMDYWGQGTSVTVSS
VL: QIVLTQSPAIMSASLGERVTMTCTASSSVSSSFLHWYQQKPGSSPQLWIYSTSNLASGVPARFSGSGSGTSYSLTISSMEAEDAATYYCHQYHHSPYIYTFGGGTKLEIK
For B7, the OD450nm turned out to be 0.784 and the Ratio OD(Variant)/OD(WT) came to 0.948.

(Values after patent US20230365662A1.)
